Values belong to the substance of their own block, whether it stands above or below them.
Legend:
Assay in all cases: cell-based or functional assay
HLA-DR (human) = target: HLA-DR (human)
CEACAM6 (human) = CEACAM6 (human) (UniProt P40199)
CD20 (human) = CD20 (human) (UniProt P11836)
CD19 (human) = CD19 (human) (UniProt P15391)
CD22 (human) = CD22 (human) (UniProt P20273)
CEACAM5 (human) = CEACAM5 (human) (UniProt P06731)
CEACAM5 (human), sequence (P06731 35-702): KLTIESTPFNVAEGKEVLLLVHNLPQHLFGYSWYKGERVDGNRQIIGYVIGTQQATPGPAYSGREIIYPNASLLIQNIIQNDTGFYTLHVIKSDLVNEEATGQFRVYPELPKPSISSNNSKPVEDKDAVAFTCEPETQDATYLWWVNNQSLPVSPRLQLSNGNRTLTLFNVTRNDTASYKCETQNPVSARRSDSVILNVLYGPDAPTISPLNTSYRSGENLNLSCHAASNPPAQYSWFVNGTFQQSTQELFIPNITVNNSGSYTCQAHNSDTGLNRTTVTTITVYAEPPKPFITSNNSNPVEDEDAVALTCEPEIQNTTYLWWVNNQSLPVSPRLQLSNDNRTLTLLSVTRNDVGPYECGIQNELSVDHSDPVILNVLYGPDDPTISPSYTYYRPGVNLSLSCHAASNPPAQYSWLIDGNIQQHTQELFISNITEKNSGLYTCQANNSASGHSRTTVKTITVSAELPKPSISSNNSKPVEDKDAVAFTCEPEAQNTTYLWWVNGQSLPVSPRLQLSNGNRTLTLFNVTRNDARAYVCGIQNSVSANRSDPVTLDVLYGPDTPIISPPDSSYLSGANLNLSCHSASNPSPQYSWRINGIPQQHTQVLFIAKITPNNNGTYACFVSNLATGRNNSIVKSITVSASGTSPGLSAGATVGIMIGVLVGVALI

CD20 (human), sequence (P11836 whole entry): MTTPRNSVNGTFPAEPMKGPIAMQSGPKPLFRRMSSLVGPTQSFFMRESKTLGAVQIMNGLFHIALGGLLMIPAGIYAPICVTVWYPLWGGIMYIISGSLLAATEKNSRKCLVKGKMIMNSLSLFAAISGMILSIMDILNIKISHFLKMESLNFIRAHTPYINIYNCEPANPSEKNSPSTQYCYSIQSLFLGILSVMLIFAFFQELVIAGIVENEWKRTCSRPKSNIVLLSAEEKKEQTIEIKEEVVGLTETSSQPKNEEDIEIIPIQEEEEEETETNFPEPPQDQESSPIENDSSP
CD19 (human), sequence (P15391 20-556): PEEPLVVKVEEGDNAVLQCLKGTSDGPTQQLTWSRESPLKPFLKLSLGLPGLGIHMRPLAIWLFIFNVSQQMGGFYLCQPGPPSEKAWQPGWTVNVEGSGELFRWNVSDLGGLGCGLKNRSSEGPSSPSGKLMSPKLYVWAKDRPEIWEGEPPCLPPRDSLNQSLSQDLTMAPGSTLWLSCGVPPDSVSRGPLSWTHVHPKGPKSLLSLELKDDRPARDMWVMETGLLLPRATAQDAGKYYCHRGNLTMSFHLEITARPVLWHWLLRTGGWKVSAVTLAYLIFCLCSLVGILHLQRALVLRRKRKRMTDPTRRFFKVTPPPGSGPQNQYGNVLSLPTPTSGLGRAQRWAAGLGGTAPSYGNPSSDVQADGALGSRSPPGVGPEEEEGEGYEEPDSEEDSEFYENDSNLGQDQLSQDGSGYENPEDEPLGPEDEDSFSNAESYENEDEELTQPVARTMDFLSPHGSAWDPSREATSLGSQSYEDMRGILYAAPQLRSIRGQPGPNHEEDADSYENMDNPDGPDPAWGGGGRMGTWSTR
CEACAM6 (human), sequence (P40199 35-320): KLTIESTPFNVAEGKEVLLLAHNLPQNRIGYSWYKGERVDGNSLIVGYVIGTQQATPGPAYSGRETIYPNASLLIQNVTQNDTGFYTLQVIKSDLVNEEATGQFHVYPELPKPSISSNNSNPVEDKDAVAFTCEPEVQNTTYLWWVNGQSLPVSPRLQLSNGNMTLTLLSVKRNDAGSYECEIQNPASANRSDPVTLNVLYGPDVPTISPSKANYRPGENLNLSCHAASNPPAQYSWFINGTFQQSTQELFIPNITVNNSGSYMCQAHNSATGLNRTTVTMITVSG

Substance: (C2)-3s, anti-HLA-DR x anti-CD3 DNL complex (two CH1-DDD2-Fab-hL243 + one scFv-AD2-Okt3) (bispecific antibody)
- T-cell mediated killing of Jeko-1, LysisMax (HLA-DR (human)): 88%
- ex vivo re-directed T-cell killing of Jeko-1, IC50 (HLA-DR (human)): 20 pM
- ex vivo re-directed T-cell killing of Ramos, IC50 (HLA-DR (human)): 2 pM

Substance: (15)-3s, anti-CEACAM6 x anti-CD3 DNL complex (two CH1-DDD2-Fab-hMN-15 + one scFv-AD2-Okt3) (bispecific antibody)
- T-cell mediated lysis of NCI-N87, IC50 (CEACAM6 (human)): 3 pM

Substance: (20)-3s, anti-CD20 x anti-CD3 DNL complex (two CH1-DDD2-Fab-hA20 + one scFv-AD2-Okt3) (bispecific antibody)
- T-cell mediated killing of Daudi, IC50 (CD20 (human)): < 0.3 pM
- T-cell mediated killing of Daudi, LysisMax (CD20 (human)): 90%
- T-cell mediated killing of Jeko, LysisMax (CD20 (human)): 90%
- T-cell mediated killing of Namalwa, LysisMax (CD20 (human)): 53%
- ex vivo re-directed T-cell killing of Daudi, IC50 (CD20 (human)): 0.3 pM
- ex vivo re-directed T-cell killing of Jeko-1, IC50 (CD20 (human)): 1 pM
- ex vivo re-directed T-cell killing of Namalwa, IC50 (CD20 (human)): 30 pM
- ex vivo re-directed T-cell killing of Ramos, IC50 (CD20 (human)): 0.4 pM

Substance: (14)-3s, anti-CEACAM5 x anti-CD3 DNL complex (two CH1-DDD2-Fab-hMN-14 + one scFv-AD2-Okt3) (bispecific antibody)
- T-cell mediated lysis of LS-174T, IC50 (CEACAM5 (human)): 2 pM

Now from value to substance, other results behind:

- % of cell population in T cell-B cell association (CD3+CD20+) at 0.1 µg/mL (19)-3s (CD19 (human)): > 25%
- association of Daudi cells with T cells after (19)-3s (CD19 (human)): > 90%
- co-binding of Daudi and T cells, % CD20+/CD7+ flow events after (19)-3s (CD19 (human)): 45.5%
- concentration at saturation of (19)-3s-mediated cell-to-cell association (Jurkat/Daudi) (CD19 (human)): 0.037 to 0.111 µg/mL
Substance: (19)-3s, anti-CD19 x anti-CD3 DNL complex (two CH1-DDD2-Fab-hA19 + one scFv-AD2-Okt3) (bispecific antibody)
- T-cell mediated killing of Daudi, LysisMax (CD19 (human)): 60%
- T-cell mediated killing of Nalm6, LysisMax (CD19 (human)): 93%
- T-cell mediated killing of Namalwa, LysisMax (CD19 (human)): 60%
- T-cell mediated killing of Raji, IC50 (CD19 (human)): 3000 pM
- T-cell mediated killing of Raji, LysisMax (CD19 (human)): 41%
- T-cell mediated killing of Ramos, IC50 (CD19 (human)): 0.17 pM
- T-cell mediated killing of Ramos, LysisMax (CD19 (human)): 79%
- ex vivo re-directed T-cell killing of Daudi, IC50 (CD19 (human)): 1 pM
- ex vivo re-directed T-cell killing of Jeko-1, IC50 (CD19 (human)): 3000 pM
- ex vivo re-directed T-cell killing of Nalm-6, IC50 (CD19 (human)): 6 pM
- ex vivo re-directed T-cell killing of Namalwa, IC50 (CD19 (human)): 63 pM
- ex vivo re-directed T-cell killing of Raji, IC50 (CD19 (human)): > 3000 pM
- ex vivo re-directed T-cell killing of Ramos, IC50 (CD19 (human)): 2 pM

- T-cell mediated lysis of Daudi, IC50 (CD22 (human)): 5 pM
- T-cell mediated lysis of Daudi, LysisMax (CD22 (human)): 60%
Substance: (22)-3s, anti-CD22 x anti-CD3 DNL complex (two CH1-DDD2-Fab-hLL2 + one scFv-AD2-Okt3) (bispecific antibody)
- ex vivo re-directed T-cell killing of Daudi, IC50 (CD22 (human)): 6 pM
- ex vivo re-directed T-cell killing of Namalwa, IC50 (CD22 (human)): > 3000 pM
